In the supplement of paper PMC9170038:

Tested on: K4 kissing-loop RNA reporter
Experiment: apparent KD of K4 kissing-loop reporter; higher = weaker reporter binding
Conditions: Eterna round: R107
Method: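 RNA-MaP round R107: designed RNA switches with theophylline, tryptophan, arginine or FMN aptamers are transcribed on-chip within common flanks. They are titrated with a labelled K4 kissing-loop RNA reporter in RNA-MaP buffer (100 mM Tris pH 7.5, 80 mM KCl, 4 mM MgCl2), without ligand or with the indicated ligand. Median apparent KD per design.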

[1] = input ligand: theophylline 20 uM
[2] = input ligand: tryptophan 2.4 mM
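Further: bound reporter read as fluorescence of individual clusters on recovered sequencing chips by microscopy, with normalized cluster intensities fitted with a binding model.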

Row | Sequence | apparent KD of K4 kissing-loop reporter (input ligand: FMN 200 uM) | apparent KD of K4 kissing-loop reporter (input ligand: arginine 13.2 mM) | apparent KD of K4 kissing-loop reporter (input ligand: none) | apparent KD of K4 kissing-loop reporter [1] | apparent KD of K4 kissing-loop reporter [2]
1 | AAAUAAUAAAUGCAGCCAGUGAUGUUGGAAGGAGCGUGCGAAAGCACAGGUAGGUCGCCAACCAAAGCUGGAAACAGCAACUGCA [#SwitchBubble 3 #K4Early] | 226 nM | 129 nM | 84.5 nM | 129 nM | 99.1 nM
2 | AAAUACAUUUUAUUAUAUAACUUUUCAGAAGGAGCGUGGAAGUUCACAGGUAGGUCGCUGAAUAUUGGACUAGUGAUGUUAGUUA [JR_Nu_SSArginiA_Sub021] | 222 nM | 217 nM | 253 nM | 225 nM | 179 nM
3 | AAAUAGAUCAGUCACCCAGUGAUGUUGGAAGGAGCGUGCGAAAGCACAGGUAGGUCGCCAAAACCUAAGUGGCUGAUCAAAAUAA [#SwitchBubble 4 #K4Early] | 838 nM | 445 nM | 819 nM | 523 nM | 587 nM
4 | AAAUAGAUCAGUCAUCCAGUGAUGUUGGAAGGAGCGUGCGAAAGCACAGGUAGGUCGCCAAAAUAAAAGUGGCUGAUCAAAAUAA | 629 nM | 374 nM | 302 nM | 594 nM | 302 nM
5 | AAAUAUUCGAGUGAUGUUCGAUAAAUUUCAGAGGAUAUGCUUAAAAGCAGAAGGCUGUAUUUCUAUUUGUUAUGAAAUUUUAUAA [JR_ExcFMNA_Sub003] | 103 nM | 113 nM | 87.3 nM | 109 nM | 73.3 nM
6 | AAAUUCUUUUUUUUAUUUAACUUUUCAGAAGGAGCGUGGUAGUACACAGGUAGGUCGCUGAAUAUAAGACUAGUGAUGUUAGUUA [JR_SSArginiA_Sub009] | 172 nM | 190 nM | 235 nM | 215 nM | 165 nM
7 | AAAUUUAAUAUAUUUAAUUAAUUAAGUGAUACCAGACAUUAAUAAGUCCCUUGGCAGCGCAAUGCAGUGAUGUUGCUUAUAAUAA [#18 K4 Theophylline A Same State] | 56.1 nM | 82.9 nM | 50.1 nM | 136 nM | 48 nM
8 | AAAUUUAAUAUAUUUAAUUAAUUAUGUGAUACCAGACAUUAAUAAGUCCCUUGGCAGCACAAUGCAGUGAUGUUGCUUAUAAUAA [JR_SSTheophyA_Sub010] | 85.7 nM | 117 nM | 86.9 nM | 138 nM | 70.3 nM
9 | AACCACUCGUUACAUCACUAUCGAGUGGAACGAGGACCGGUACGGCCGCCACUCGAAUAGAUGCAGUGAUGUUGCAUCUUGGAAU [KL-SSTryp-A (BrourdMod)4 #dotplot2 strengthened] | 181 nM | 141 nM | 163 nM | 156 nM | 132 nM
10 | AACCACUCGUUACAUCACUAUCGAGUGGAACGAGGACCGGUACGGCCGCCACUCGAUAACUUGCAGUGAUGUUGCAAGUAAGAAU [(T)''-(K)'-(T)'-(T1)-(T2)-(K1)-(K2)_Design9] | 542 nM | 343 nM | 472 nM | 381 nM | 289 nM
11 | AACCACUCGUUACAUCACUAUCGAGUGGAACGAGGACCGGUACGGCCGCCACUCGGUAUCUUGCAGUGAUGUUGCAAGAAAGAAU [KL-SSTryp-A #dotplot2 strengthened] | 212 nM | 199 nM | 256 nM | 164 nM | 163 nM
12 | AACUCUCACUGGAGUGAUGUUCUGGAAAACCGAGGACCGGUACGGCCGCCACUCGGAAAUGAGAGAGUCCUACGAAAAGUAGGAC [Omei inspired 1] | 191 nM | 213 nM | 217 nM | 255 nM | 139 nM
13 | AACUGUCAAGGACAACAUUACUGAGGUGAUACCAGCAUCGAAAGAUGCCCUUGGCAGCGCCAACUUGCAGUGAUGUUGCAAGUAA [BrourdMod 1 - Jieux - Exclusion - Theophylline A] | 169 nM | 141 nM | 157 nM | 159 nM | 164 nM
14 | AACUUAAUUUAUAAGCAGUGAUGUUGCUCACGAGGACCGGUACGGCCGCCACUCGAUCGGACUUAGGUCUUCAAUUAUUUCUUAA [JR_ExcTryptoA_Sub018] | 114 nM | 157 nM | 137 nM | 140 nM | 121 nM
15 | AAGAAGAAUGGAAGGAGCGAGCAGAUAUAACCAGUGAUGUUGGAAAGCCUUAUUGCUUAAGCUCAGGUAGGUCGCCAAGAAAAGA [whbob_Ex_Arginine_B_2t151] | 162 nM | 153 nM | 172 nM | 193 nM | 212 nM
16 | AAGACUUGCAUCGAUACCAGCCCAGUGAUGUUGGGCUGCUCUCCAUGGGUGCCAGACACGGGCCCUUGGCAGCGAGGUAAGGCCC [Soveri] | 129 nM | 110 nM | 113 nM | 109 nM | 106 nM
17 | AAGAGGUAGGCGGCCGCCACUUGUUGUGAACACAUACGAGCCAGUGAUGUUGGUAUUGUGUGCGGAAGGACCGGGCCUACCUGAA [Exclusion - Tryptophan B (Freestyle 21)] | 146 nM | 173 nM | 136 nM | 46 nM | 140 nM
18 | AAGCAGUCACUCGACGCCAUCGAAGAUGGGCGAGGACCGGUACGGCCGCCACUCGGAGUGAUGUUCUGAAGACUGCAAAAUAAAA [MatMod 7 - Jieux - Exclusion - Tryptophan A] | 235 nM | 166 nM | 153 nM | 115 nM | 160 nM
19 | AAGCAGUCCCUCGAAGCCAUCGAAGAUGGGCGAGGACCGGUACGGCCGCCACUCGGAGUGAUGUUCCGAAGACUGCAAAAUAAAA [MatMod 3 - Jieux - Exclusion - Tryptophan A] | 367 nM | 316 nM | 192 nM | 273 nM | 185 nM
20 | AAGCGUAAAAUGGCGGACAUACUGCUCCCACGAGGACCGGUACGGCCGCCACUCGAAUGCGGCAGUGAUGUUGCCGCCUUCGCGU [Zauslereed] | 74 nM | 68.3 nM | 62.8 nM | 69.9 nM | 62.5 nM
